Test: soluble on expression in E. coli; label from the status in PepcDB or PDB records

Sequence | soluble on expression in E. coli
MQNNDFRTGSGSLKGSSTGVLKQFLFENVFICRIGVIKSFDFETQKGVVTIKEYEGLEISTCSISNFNFDLTAEDEVILLQSNFNIFQESDNNHFDKNYFYILSVLNPKKIGIRLDQFELSVQELGAQSENIKFKAKKLIIDVDNIEIKGNLKINGTKFENHMHSSGTLTYVNSSGVPTTTTGKTGPIA | soluble
MQPGGDMSALLAQAQQMQQKLLEAQQQLANSEVHGQAGGGLVKVVVKGSGEVIGVTIDPKVVDPDDIETLQDLIVGAMRDASQQVTKMAQERLGALAGAMRPPAPPAAPPGAPGMPGMPGMPGAPGAPPVPGI | not soluble
MQPIEFLEGGCLCGAIRYRIEGNPFDADYCHCRMCQKSIGAAFGAWMDFNVSQVTWLKGNVTEFASSDFVRRGFCAQCGCSLTYRHTEYPDYLTLTIASFDDPNLVQPNYHIYTEQQLSWLKIEDNCQRYPQARTK | soluble
MQPMTARFDLFVVGSGFFGLTIAERVATQLDKRVLVLERRPHIGGNAYSEAEPQTGIEVHKYGAHLFHTSNKRVWDYVRQFTDFTDYRHRVFAMHNGQAYQFPMGLGLVSQFFGKYFTPEQARQLIAEQAAEIDTADAQNLEEKAISLIGRPLYEAFVKGYTAKQWQTDPKELPAANITRLPVRYTFDNRYFSDTYEGLPTDGYTAWLQNMAADHRIEVRLNTDWFDVRGQLRPGSPAAPVVYTGPLDRYFDYAEGRLGWRTLDFEVEVLPIGDFQGTAVMNYNDLDVPYTRIHEFRHFHPERDYPTDKTVIMREYSRFAEDDDEPYYPINTEADRALLATYRARAKSETASSKVLFGGRLGTYQYLDMHMAIASALNMYDNVLAPHLRDGVPLLQDGA | soluble
MQPWQTDPTRAPVATKIVVAGGFGVGKTTLVTAVSEITPLQTEALMTEASEETDDLTATPGKLTTTVAMDFGRITLDDDLVLYLFGTPGQQRFWFMWDDLVRGAIGAVVLADTRRLKDCWPALDYFESCGLPYVVAVNHFDGSELFEAEDVREALTIPAHIPVMIMDARRRISAIETLLSLVGHALDETPELEHHHHHH | not soluble
MQQKLENIKFVITDVDGVLTDGQLHYDANGEAIKSFHVRDGLGIKMLMDADIQVAVLSGRDSPILRRRIADLGIKLFFLGKLEKETACFDLMKQAGVTAEQTAYIGDDSVDLPAFAACGTSFAVADAPIYVKNAVDHVLSTHGGKGAFREMSDMILQAQGKSSVFDTAQGFLKSVKSMGQLEHHHHHH | soluble
MQQVIPAPRVQVTQPYAGQKPGTSGLRKKVSEATQPNYLENFVQSIFNTLRKDELKPKNVLFVGGDGRYFNRQAIFSIIRLAYANDISEVHVGQAGLMSTPASSHYIRKVNEEVGNCIGGIILTASHNPGGKEHGDFGIKFNVRTGAPAPEDFTDQIYTHTTKIKEYLTVDYEFEKHINLDQIGVYKFEGTRLEKSHFEVKVVDTVQDYTQLMQKLFDFDLLKGLFSNKDFSFRFDGMHGVAGPYAKHIFGTLLGCSKESLLNCDPSEDFGGGHPDPNLTYAHDLVELLDIHKKKDVGTVPQFGAACDGDADRNMILGRQFFVTPSDSLAVIAANANLIFKNGLLGAARSMPTSGALDKVAAKNGIKLFETPTGWKFFGNLMDAGLINLCGEESFGTGSNHIREKDGIWAVLAWLTILAHKNKNTDHFVTVEEIVTQYWQQFGRNYYSRYDYEQVDSAGANKMMEHLKTKFQYFEQLKQGNKADIYDYVDPVDQSVSKNQGVRFVFGDGSRIIFRLSGTGSVGATIRIYFEQFEQQQIQHETATALANIIKLGLEISDIAQFTGRNEPTVIT | soluble
MQSITPPLIAVIGSDASGKSTVCEHLITVVEKYGAAERVHLGKQAGNVGRAVTKLPLMGKSLHKTIERNQVKTAKKLPGPVPALVITAFVARRLLRFRHMLACRRRGLIVLTDRYPQDQIPGAYDGTVFPPNVEGGRFVSWLASQERKAFHWMASHKPDLVIKLNVDLEVACARKPDHKRESLARKIAITPQLTFGGAQLVDIDANQPLEQVLVDAEKAITDFMTARGYH | not soluble
MQSQWCARQQDMIAVYGALAEQCDYALHLGLTEAGMGSKGIVASTAALAVLLFKGIGDTIRVSLTPEPGGDRAREVIVAQEILQTMGLRAFVPLVAACPGCGRTTSTYFQELAESIQIYVREQMVIWREQYEGVENMSLAVMGCVVNGPGESKHADIGISLPGSGETPVAPVFVDGQKTVTLKGDNIAGEFRMIVDEYVRTKYRKKAANALEHHHHHH | not soluble
MQSTIRKQLLQVFSEADGEFVSGQTISDKLGCSRTAVWKHMEDLRNEGYELEAVRRLGYRIASKPDKVTANEIQLGLQTKHIGRTVYFEESVESTQHIAAKLAYEGAEEGTIVVAEEQTAGRGRLSRKWHSPKGTGIWMSIILRPSIPVHHAPQLTLLAAVSVAQAIEKCTGVNVGIKWPNDILIQGKKAVGILTEMQADPDKINAVIMGIGINANQKQEHFDEEIQHIATSLAIESGKPIVRAELMQQIFLQLEKLYEEYLQNGFSVIKILWESYAVSIGKEINARTMRETITGVAKGITEDGVLLLEDHEGKVHHIHSADIEIK | not soluble
MQSTVAFISHRSTHKDFVRKIVDTVKRDNCIVDEFDFYPATKTVNEIVRNLNFAPIFVLLISKDALESDWIKLEMSKARQLYDTGVIREFMPFIIEEGVKLEELPSWMTRDWSLNIKTITSPKIIGQFIIETQRKIRCVGNNAYGNWINTFIGRSNELDEFQRAMYDSVYMPHRSLIVSGKPGSGRTRFIQKCIQDSSGLSFIPEGFQIKLPQKTYLDNFILQLHEGLGFSKASYEDILKLDHEHQITKCVSYINQIINAHSFLLIEDEMSFVSYDGTISEWGKEIISHPAMIDSLKIFISSRVKPRYSELRAYPQIIHINLSGFTKDERKRLFVNCCRYYNVQLNDSDVDFFVDRLQSSPQQLEQAVREIKDKNVRFAKKDIKNLIAIGDEVFSRVISWFKGDETALTLAKVLAEVDMISFDLLEQLYEEDYPKIEQLVNNFESLSILDFYGPGGNNISLDGGVSDYIRRSKLDLDPIMKTRIEEIIFNKIDTAEDDLGELSIFLHDLRKQLLSGKGFAYVMPSIVISTVIDLYNQGSYDSVKDICLHALEHCSSYTEEPLQELYYRLCQVLARMKDRIFFTYIDKIKDKGSKDFLYGFYYRYKEDYSKAEEYLLKALDFNSNMQIARRELVNVYLNQEKYTKALPLAKENYNRKSTNSYHIEAYFRCLLNHYPWNTETEDTLNRLLKEMEENFSKRKDELLASMQLEYFIKSRNHTKEEIKEKIQETLIVYPNSPQVYRIKEEFERDKSRFCKSCNC | not soluble
MQTLILMAYIKRLVSEGKHASLREAYYANKHTVPGTRENTFEDQSESDPIIEDLERMLGVLREEMHITADRRGYIYGDIVIKDGEDEFNASKLGTGGWAVPGTVEHIQFPEINVDYVLVVETAAMADRLIEEKYPKRENCLIVATQGQASRGVRRLIHRLHYEEGLPIIVFTDGDPYGWYIYSTIKRGSINLAYLSEKLATPDAKFVGMTMDDIKEYNLENVTEKLKGIPPDKKGGPTGDYKRLIEELNYPWFQDKEWQRQLKLALKWGVRIEQQALANKSLEFVAKEYLPEKIREGKLLP | soluble
MQTWQLPEHIADVLPTNARQLESAREQLLALFRVHGYELVQPPLMEYAHSLLTHIDAGLSLKTILVTDRLSGRQLGIRADITPQVARIDAHLLSANQGINRLCYAGPVLHAQPDGLLNMREPLQAGAEMYGFADIRGDIELIDLMLKSMKIADMGKVLLSLGHIGIFRALSDAAHLDAGQSATLLALMQDKDTGAVEAQVKAWKLDGMWAKAFSLLPRLYGGREVLSDARGRLPDLSAVGGALGELQAVCDAFPDCEIHIDLSELRVDNYHTGLLYAAYAADFHDAVARGGRYDGLGGYFGRARPATGFSFDLRSFIGRLPAIERQPAVLVDAEDAEAAHEAVEALREQGQCVVIDYGIGHNVSEELAGRLKKTDGVWQVVKR | not soluble
MQVIIISGLSGSGKSIALKVLEDSGYYCVDNLPASLLVVLINHLQTQQHAYVAVAIDMRSGENITVLPWQLKMIDKSIQIKFIFLEARTETLMQRFSETRRRHPLSDKNITLEEAIRREREALATLTGLGHHIDTSSLRPNVLRAFIKDFIADSRSPSQLTLLFQSFGYKHGIPLDADLVFDIRCLPNPFYDPQLKELTGHDPEVIRFMESQPDASKMLRDISSFLGTWLPAYIRDNRAYLTVAIGCTGGQHRSVYFAEKLALHFHDSAHVLVRHRGLAEYKPHYARR | not soluble

Reference: the DeepSol protein solubility set
